Positions count from the first letter of the chain named. One block for each binder: values may come before it.
Experiments:
[1] = molecular target: T1, recombinant human ROR1-ECD protein (human, UniProt Q01973 30-406); assay: ELISA, ROR1-ECD coated at 1 ug/mL
T1 construct: also called human ROR1 extracellular domain
Description: The binding specificity and potency of anti-ROR1 antibodies were characterized by protein ELISA and flow cytometry analysis of cell surface binding. Briefly, binding properties of the anti-ROR1 antibodies were measured with ELISA as follows: recombinant ROR1-ECD protein was coated at 1 μg/mL on 96-well plates at 4° C. overnight. Plates were washed once with washing buffer (PBS containing 0.05% Tween 20) and blocked with ELISA blocking buffer (1% BSA in PBS containing 0.05% Tween 20) at room temperature for 2 hours. Anti-ROR1 antibodies were then added and incubated at 37° C. for 1 hour. Plates were washed three times with washing buffer. HRP labeled anti-mouse IgG secondary antibody (Sigma, Cat. #A0168) was added and the plates were incubated at 37° C. for 30 minutes then washed 5 times in washing buffer. 100 μl of tetramethylbenzidine (TMB) chromogenic solution was added to each well. Following color development, the reaction was stopped with 1 Normal HCl and absorbance at 450 nm was measured on a Varioskan™ LUX microplate reader (ThermoFisher Scientific). Binding signals were plotted against antibody concentration with GraphPad Prism 6.0 software and EC50s were calculated accordingly.

human ROR1 on cells [2] = molecular target: T2, human ROR1 on cells (human, UniProt Q01973 30-937); assay: flow cytometry on RPMI-8226 myeloma cells
T2 construct: whole, on cells; the cell line is named under assay; also called CHO-ROR1; CHOK1-ROR1
T2 sequence (Q01973 30-937): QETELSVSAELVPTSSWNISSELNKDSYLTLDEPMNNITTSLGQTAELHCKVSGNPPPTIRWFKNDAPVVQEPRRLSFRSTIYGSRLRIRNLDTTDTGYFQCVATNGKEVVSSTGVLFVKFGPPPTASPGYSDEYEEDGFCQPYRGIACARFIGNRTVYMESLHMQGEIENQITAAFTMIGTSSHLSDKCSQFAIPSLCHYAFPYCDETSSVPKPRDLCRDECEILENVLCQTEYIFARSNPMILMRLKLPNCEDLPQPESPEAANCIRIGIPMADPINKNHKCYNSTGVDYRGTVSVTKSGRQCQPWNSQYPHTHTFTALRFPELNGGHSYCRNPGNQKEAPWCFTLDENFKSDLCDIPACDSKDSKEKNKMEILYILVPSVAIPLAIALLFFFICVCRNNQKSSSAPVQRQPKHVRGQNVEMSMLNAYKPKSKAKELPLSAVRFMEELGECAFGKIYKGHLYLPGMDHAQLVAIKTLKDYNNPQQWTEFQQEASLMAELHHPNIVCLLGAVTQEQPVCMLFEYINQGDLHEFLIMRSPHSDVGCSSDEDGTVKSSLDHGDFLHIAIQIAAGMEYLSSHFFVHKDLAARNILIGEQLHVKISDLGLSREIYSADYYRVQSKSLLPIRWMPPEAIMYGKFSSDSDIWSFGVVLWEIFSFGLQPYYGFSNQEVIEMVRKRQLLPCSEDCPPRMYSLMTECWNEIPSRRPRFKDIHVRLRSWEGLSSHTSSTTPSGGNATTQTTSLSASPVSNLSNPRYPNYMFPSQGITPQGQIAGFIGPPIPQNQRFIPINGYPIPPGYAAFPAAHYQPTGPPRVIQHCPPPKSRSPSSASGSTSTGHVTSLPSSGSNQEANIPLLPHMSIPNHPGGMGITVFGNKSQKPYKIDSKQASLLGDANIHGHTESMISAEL
Description: (§1) Cell binding activity of anti-ROR1 antibodies were measured with human ROR1 transfected CHO cell line (CHO-ROR1) and ROR1-expressing myeloma cell line (RPMI8226). Briefly, 5×10⁵ cells were seeded into each well of a 96-well plate. Cells were centrifuged at 400 g for 5 minutes and supernatants were discarded. For each well, 100 μl of serially diluted antibodies were then added and mixed with the cells. After 40 minutes incubation at 4° C., plates were washed several times to remove excess antibodies. Secondary fluorochrome-conjugated goat anti-mouse IgG antibody was then added and incubated with cells at room temperature for 20 minutes. After another round of centrifugation and a washing step, cells were resuspended in FACS buffer for reading on a CytoFLEX Flow Cytometer (Beckman Coulter). Median Fluorescence Intensity (MFI) readouts were plotted against antibody concentration and analyzed with GraphPad Prism 6.0 software. The results shown in FIGS. 2A-B illustrate the binding activities of anti-ROR1 monoclonal antibodies ROR1-mAb004 and ROR1-Tab1 to ROR1 expressing cells. An irrelevant mIgG1 was used as negative control.

human ROR1 on cells [3] = molecular target: T2, human ROR1 on cells; assay: flow cytometry on human ROR1 transfected CHO cells (CHOK1-ROR1)
Description: as §1

[4] = molecular target: T1, recombinant human ROR1-ECD protein; assay: BLI (Octet RED96), antibody captured on anti-mouse IgG Fc sensors, ROR1-ECD in solution, 25 C, 1:1 fit
Description: Briefly, Anti-Mouse IgG Fc Capture (AMC) Biosensors were used to capture purified anti-ROR1 antibodies. Sensors were then dipped into solutions containing recombinant human ROR1-ECD protein to detect target protein binding to the captured antibodies. Kinetics constants were determined by processing and fitting data to a 1:1 binding model using Fortebio analysis software. Shown below in Table 2 are the results obtained for ROR1-mAb004 in comparison with two previously described anti-ROR1 monoclonal antibodies, ROR1-Tab1 is clone R12 as described in WO2014167022, and ROR1-Tab2 is clone D10 as described in WO2012097313.

[5] = molecular target: T1, recombinant human ROR1-ECD protein; assay: competition ELISA: biotinylated ROR1-ECD pre-mixed with the row's antibody; competitor coated on the plate: ROR1-Tab1
Description: (§2) The binding epitope of ROR1 antibodies were identified with a competition ELISA. Briefly, 96 well plates were coated with 1 ug/mL purified antibodies and incubated overnight at 4° C. After washing with PBS containing 0.05% Tween 20, plates were blocked with blocking buffer (PBS containing 0.05% Tween 20 and 2% BSA) at 37° C. for 2 hours. Biotinylated human ROR1-ECD protein pre-mixed with ROR1 antibody (sample) or irrelevant mouse IgG (baseline) was added into plate wells and incubated at 37° C. for 1 hour before being washed 3 times. Streptavidin-HRP (1:5000 dilution) was then added into each well and incubated at 37° C. for 1 hour before being washed another 3 times. Tetramethylbenzidine (TMB) chromogenic solution was added for color development for 5 minutes then the reaction was stopped with 1M HCl. Absorbance at 450 nm (OD₄₅₀) was measured on a microplate reader. The OD450baseline represents the level of human ROR1-ECD binding to ROR1 antibodies at absence of competition, while the difference between OD450baseline and OD450ₛₐₘₚₗₑ reflects the competition between the ROR1 antibody coated on plate and the antibody in solution. The inhibition percentage was calculated by following equation: […]

[6] = molecular target: T1, recombinant human ROR1-ECD protein; assay: competition ELISA: biotinylated ROR1-ECD pre-mixed with the row's antibody; competitor coated on the plate: ROR1-Tab2
Description: as §2

[7] = molecular target: T1, recombinant human ROR1-ECD protein; assay: competition ELISA: biotinylated ROR1-ECD pre-mixed with the row's antibody; competitor coated on the plate: ROR1-mAb004
Description: as §2

human ROR1 on cells [8] = molecular target: T2, human ROR1 on cells; assay: flow cytometry on A549 cells, MFI
Description: (§3) Briefly, 5×10⁵ cells were seeded into each well of a 96-well plate. Cells were centrifuged at 400 g for 5 minutes and supernatants were discarded. For each well, […] of serially diluted antibodies were then added and mixed with the cells. After 40 minutes of incubation at 4° C., plates were washed several times to remove excess antibodies. Secondary fluorochrome-conjugated goat anti-human IgG antibody was then added and incubated with cells at room temperature for 20 minutes. After another round of centrifugation and a washing step, cells were resuspended in FACS buffer for reading on a CytoFLEX Flow Cytometer (Beckman Coulter). Median Fluorescence Intensity (MFI) readouts were plotted against antibody concentration and analyzed with GraphPad Prism 6.0 software.

human ROR1 on cells [9] = molecular target: T2, human ROR1 on cells; assay: flow cytometry on NCI-H1975 cells, MFI
Description: as §3

human ROR1 on cells [10] = molecular target: T2, human ROR1 on cells; assay: flow cytometry on RPMI-8226 cells, MFI
Description: as §3

human ROR1 on cells [11] = molecular target: T2, human ROR1 on cells; assay: flow cytometry on MDA-MB-231 cells, MFI
Description: as §3

human ROR1 on cells [12] = molecular target: T2, human ROR1 on cells; assay: flow cytometry on RPMI8226 cells, internalization assay, 4°C control (coincides with 37°C + PAO)
Description: The binding internalization of humanized anti-ROR1 antibodies were characterized with ROR1-expressing myeloma cell line RPMI8226 with a method similar to that described previously in Example 1.4. Briefly, cells were harvested and resuspended in FACS buffer at density of 3 million per mL. Diluted antibodies were added to the tubes and incubated for 30 min at 4° C. After the first incubation, cells were washed three times with cold PBS to remove unbound antibody. Then, the cells of each antibody treatment were split into three groups, 4° C., 37° C. and 37° C.+PAO, respectively. Cells in the 37° C. […] After another round of centrifugation and washing step, cells were resuspended in FACS buffer for reading on a CytoFLEX Flow Cytometer (Beckman Coulter). An irrelevant mouse IgG control (MFIbackground) was calculated and used for background calibration. The difference between the MFI readout of “control” and that of “internalization” (ΔMFI) reflects the internalization of ROR1 antibodies, and such difference in relative to calibrated MFI of “control” reflects percentage of antibody internalization, which is calculated as follows and is summarized below in Table 15. […] The calculated antibody internalization percentages of HuROR-mAb004-1 and FIT1007-12B-17 were consistent with the results shown in Example 1.4, Table 4.

[13] = molecular target: T1, recombinant human ROR1-ECD protein; assay: BLI (Octet), 6 ROR1 antigen concentrations, 3 fold diluted from 500 nM
Description: (§4) The ROR1/CD3 FIT-Ig proteins were assayed for and ranked by dissociation rate constant (koff, “off-rate”) using an Octet®RED96 biolayer interferometry (Pall FortéBio LLC). Anti-hIgG Fc Capture (AHC) Biosensors (Pall) were first exposed to antibody at a concentration of 100 nM for 30 seconds to capture antibody, then dipped into running buffer (1× pH 7.2 PBS, 0.05% Tween 20, 0.1% BSA) for 60 seconds to check baseline. Sensors with captured antibody were dipped into recombinant human ROR1 ECD protein at 10 ug/ml for 5 minutes to measure association, followed by dipped into running buffer for 1200 seconds to measure dissociation. The association and dissociation curves were fitted to a 1:1 Langmuir binding model using ForteBio Data Analysis software (Pall). The off-rate ratios were calculated by the off-rate of antibody to that of FIT1007-12B. Lower ratio indicates slower dissociation of the antibody in comparison with the parental chimeric antibody FIT1007-12B.
ROR1 binding affinity/kinetics of the humanized candidate FIT1007-12B-17 and its parental chimeric FIT-Ig FIT1007-12B were measured using the same method as described in Example 3. For each antibody, measurements were titrated by 6 antigen concentrations, i.e., 3 fold diluted from 500 nM. Binding kinetics of FIT1007-12B-18, MAT1007-12B-17 and MAT1007-12B-18 are similar to those of FIT1007-12B-17. These candidates share the same ROR1 binding Fab.

[14] = molecular target: T1, recombinant human ROR1-ECD protein; assay: BLI (Octet RED96), FIT-Ig captured on anti-hIgG Fc sensors, ROR1 ECD at 10 ug/ml; the reference itself
Description: as §4

[15] = molecular target: T1, recombinant human ROR1-ECD protein; assay: BLI (Octet RED96), FIT-Ig captured on anti-hIgG Fc sensors, ROR1 ECD in solution
Description: as §4

T1 sequence (Q01973 30-406): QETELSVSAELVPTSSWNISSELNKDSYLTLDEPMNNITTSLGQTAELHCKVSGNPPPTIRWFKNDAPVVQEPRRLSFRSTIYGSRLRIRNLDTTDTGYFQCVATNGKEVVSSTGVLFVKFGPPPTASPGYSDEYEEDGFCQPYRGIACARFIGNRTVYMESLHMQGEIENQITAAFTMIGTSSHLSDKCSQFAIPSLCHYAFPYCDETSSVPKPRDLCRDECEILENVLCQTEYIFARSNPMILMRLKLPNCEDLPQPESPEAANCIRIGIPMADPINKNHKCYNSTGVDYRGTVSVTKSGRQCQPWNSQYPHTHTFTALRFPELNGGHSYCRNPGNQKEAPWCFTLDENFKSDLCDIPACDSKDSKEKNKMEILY

EC50 [1]: 0.022 nM
EC50 (human ROR1 on cells [2]): 0.983 nM
EC50 (human ROR1 on cells [3]): 2.31 nM
Kd [4]: 18.5 nM
koff [4]: 0.00171 s⁻¹
kon [4]: 92500 M⁻¹ s⁻¹
Inhibition % [5]: -22%
Inhibition % [6]: 92%
Inhibition % [7]: 93%
B1: ROR1-mAb004 (antibody, V domains shown)
VH: QVQLQQSGPELVKPGASVKISCKASGYAFSRSWMNWVKQRPEKGLEWIGRIYPGNGDIKYNGNFKGKATLTADKSSSTAYMQLSSLTSEDSAVYFCAHIYYDFYYALDYWGQGTSVTVSS
VL: DIQLTQSPSSLSASLGGKVTITCKASQDINKYITWYQHKPGKGPRLLIHYTSTLQPGIPSRFSGSGSGRDYSFSISNLEPEDIATYYCLQYDSLLWTFGGGTKLEIK
notes: Mouse hybridoma monoclonal antibody; captured and detected through mouse IgG Fc

EC50 (read off the curve) (human ROR1 on cells [8]): ~1 nM
EC50 (read off the curve) (human ROR1 on cells [9]): ~2 nM
EC50 (read off the curve) (human ROR1 on cells [10]): ~1 nM
EC50 (read off the curve) (human ROR1 on cells [11]): ~2 nM
B2: HuROR1-mAb004-1 (antibody, V domains shown)
VH: EVQLVQSGAEVKKPGSSVKVSCKASGYTFSRSWMNWVRQAPGQGLEWMGRIYPGNADIKYNANFKGRVTITADKSTSTAYMELSSLRSEDTAVYYCAHIYYDFYYALDYWGQGTTVTVSS
VL: DIQMTQSPSSLSASVGDRVTITCKASQDINKYITWYQQKPGKAPKLLIYYTSTLQPGVPSRFSGSGSGTDYTFTISSLQPEDIATYYCLQYDSLLWTFGGGTKVEIK
notes: only the variable domains are tied to it; also called HuROR-mAb004-1; parental anti-ROR1 monoclonal IgG1 antibody
EC50 (read off the curve) (human ROR1 on cells [12]): ~1 nM

EC50 [1]: 0.025 nM
EC50 (human ROR1 on cells [2]): 0.128 nM
EC50 (human ROR1 on cells [3]): 0.774 nM
Kd [4]: 1.28 nM
koff [4]: 0.00066 s⁻¹
kon [4]: 517000 M⁻¹ s⁻¹
Inhibition % [5]: 95%
Inhibition % [6]: -84%
Inhibition % [7]: -54%
B3: ROR1-Tab1 (antibody, V domains shown)
VH: QEQLVESGGRLVTPGGSLTLSCKASGFDFSAYYMSWVRQAPGKGLEWIATIYPSSGKTYYATWVNGRFTISSDNAQNTVDLQMNSLTAADRATYFCARDSYADDGALFNIWGPGTLVTISS
VL: ELVLTQSPSVSAALGSPAKITCTLSSAHKTDTIDWYQQLQGEAPRYLMQVQSDGSYTKRPGVPDRFSGSSSGADRYLIIPSVQADDEADYYCGADYIGGYVFGGGTQLTVTG
notes: also called clone R12; R12 as described in WO2014167022

Kd [13]: 5.67 nM
koff [13]: 0.00103 s⁻¹
kon [13]: 182000 M⁻¹ s⁻¹
Off-rate Ratio [14]: 100%
B4: FIT1007-12B (bispecific antibody, human IgG1, kappa, L234A L235A)
chain 1: not shown
chain 2: QVQLQQSGPELVKPGASVKISCKASGYAFSRSWMNWVKQRPEKGLEWIGRIYPGNGDIKYNGNFKGKATLTADKSSSTAYMQLSSLTSEDSAVYFCAHIYYDFYYALDYWGQGTSVTVSSASTKGPSVFPLAPSSKSTSGGTAALGCLVKDYFPEPVTVSWNSGALTSGVHTFPAVLQSSGLYSLSSVVTVPSSSLGTQTYICNVNHKPSNTKVDKKVEPKSC
chain 3: not shown
notes: also called parental chimeric FIT-Ig; chimeric antibody (FIT1007-12B)

binding result [15]: no binding (tested: 10 ug/ml)
B5: FIT1007-12B-15 (bispecific antibody, human IgG1, kappa, L234A L235A)
chain 1: not shown
chain 2: B4 chain 2 with G56A, N61Q
chain 3: not shown
notes: Chimeric ROR1 arm with CDR-H2 point mutations (AQ); ROR1xCD3 FIT-Ig, no linkers

Source: patent US20240010753A1 (EPIMAB BIOTHERAPEUTICS HK, published 2024)
